In the DeepSol protein solubility set:

Experiment: soluble on expression in E. coli; label from the status in PepcDB or PDB records

Sequence	soluble on expression in E. coli
KSVYLQSPYFIPDNSYINAIKIAAKSGVDVHLMIPCKPDHPLVYWATFSNASDLLSSGVKIYTYENGFIHSKMCLIDDEIVSVGTANMDFRSFELNFEVNAFVYDENLAKDLRVAYEHDITKSKQLTKESYANR	not soluble
KSYASTPELRKTWLDSMARIHVKNGDLSEAAMCYVHVTALVAEYLTRKGVFRQGCTAFRVITPNIDEEASMMEDVGMQDVHFNEDVLMELLEQCADGLWKAERYELIADIYKLIIPIYEKRRDFERLAHLYDTLHRAYSKVTEVMHSGRRLLGTYFRVAFFGQGFFEDEDGKEYIYKEPKLTPLSEISQRLLKLYSDKFGSENVKMIQDSGKVNPKDLDSKYAYIQVTHVIPFFDEKELQERKTEFERSHNIRRFMFEMPFTQTGKRQGGVEEQCKRRTILTAIHCFPYVKKRIPVMYQHHTDLNPIEVAIDEMSKKVAELRQLCSSAEVDMIKLQLKLQGSVSVQVNAGPLAYARAFLDDTNTKRYPDNKVKLLKEVFRQFVEACGQALAVNERLIKEDQLEYQEEMKANYREMAKELSEIMHEQLG	soluble
LAAGPALSARGYLALNGQTPAGCSLMEWQNDNNGRQRWCVRLVQGGGFAGPLFDGFDNLYVGQPGAIISFPPTQWTRWRQPVIGMPSTPRFLGHGRLLVSTHLGQLLVFDTRRGMVVGSPVDLVDGIDPTDATRGLADCAPARPGCPVAAAPAFSSVNGTVVVSVWQPGEPAAKLVGLKYHAEQLVREWTSDAVSAGVLASPVLSADGSTVYVNGRDHRLWALNAADGKAKWSAPLGFLAQTPPALTPHGLIVSGGGPDTALAAFRDAGDHAEGAWRRDDVTALSTASLAGTGVGYTVISGPNHDGTPGLSLLVFDPANGHTVNSYPLPGATGYPVGVSVGNDRRVVTATSDGQVYSFAP	not soluble
LAAGQLADLVVLSKDYFSVAEEEIKGIESVLTVVDGKVVYAAGHFSPLAPPPIPVLPEWSPVVKVPGHYRSAPPATAKIGAMVQMHQCCGSCGVHGHQHDIARKSSIPVSDEQAFWGVLGCSCFA	not soluble
LARMSEREIDISLGTTVGRSLWRLAQGHDDREVAPRAIAKQISVEHTYPKDLVTSRAVDTAIIRASRESHRRLLDDGRGARTVSVKLRMADFRIESRSATLPYATDNLDTVTATALKLARYPDEVGPIRLVGVGLSGLEDARQDILFPELDRVVPVKDTDFEVGVSDPHDSDLEISTTDESPTAIGWRATQDIWHPDYGHGWVQGLGHGKITVRFETRTTGPGKVRTFDTNDALLSSADPINSLDWS	not soluble
LARPKLAVVGSRNASQMGVAAVKKIIQDLSKQFVIISGLARGIDTAAHLASLKSGGATIAVIGTGLDVHYPKENRRLQDYIAKNHLLLSEYEAQSQPLKYHFPERNRIIAGLSQGVMVAEAKIRSGSLITCERAMEEGRDVFVVPGNILDGQSEGCHHLIQEGAKCITSGFDILNEFNF	not soluble
LGSGTTEDVSDLPVEEQLRRLQEERTCKVCMDKEVSIVFIPCGHLVVCKDCAPSLRKCPICRSTIKGTVRTFLS	soluble
LIIGVTGCPAGIAHTYLAAEALEKGAAALGFEIKVETNGSIGVKNSPSAEEIERAEAIVVACDKQVDMARFAGKRLIKTNVKAPIRDAQKLINEALRAPTY	not soluble
LKASGVQAQMAKQQEQDPTNLYISNLPLSMDEQELENMLKPFGQVISTRILRDSSGTSRGVGFARMESTEKCEAVIGHFNGKFIKTPPGVSAPTEPLLCKF	soluble
LKFGTSWKEAYGTGWLIDWKDVKQDNKFTAYLATNLHVADSLRNKDDYKPYNKDGNQKEFLPGDITTEFSLGKYIDA	not soluble
LKVSEPAPKGFLIIGANDVARQVGLAIAKYDCRVVVTDSNWDYIRQARMTGLEHYYGNPISSHAEDYLNLIGIGHVLALSPDKHFNIMACMQFLSDFGDKRVFCLNDNPTNNVSEKHLVAQEYHGLPFLGGEVSYKKLASLVGQGAEVKHTKLS	not soluble
LLWPNYMRPLPAFSILQFDPLTRPGGALRVERDTPVESRPVGEVACRFRTCYATEVLPLVLEALNYSVTGEGALLGLRLAMNCDGHLGELGLSRLRLHLAGERYISQMLYLCLLRNLESIQLIPLDAHGRPLDGVAGKPMSFRLTGERVQPVGFAEDEALIPYPLNTFRGYRYLQEYFAFQDKFLFVDVDGLDLLGALPEETLKQVRGLELRFDIRKSGIQRLHPTLENVKLYCTPVANLFRHDALPIRLDGKQDEYLLMPAEYSLEDCGVFSVEGVTGWRPGGLGYQAYVPFESFEHDPSFDVPEARPHYSVRQRTSLLHDGLDTYLSFGIRHPEQIETLSVELTCTNQNLPQRLRLGDICVACEGTPEFLGFRNITPATPSYAPPLNRDFLWKLISNMSLNYLSLANVDALKVILETYDLPRYYDQHAAKVSKRLLGGLKAVRHEHVDRLHRGLPLRGLRTELTIDPEGYIGEGDLFVFASVLNEFFALYASINSYHELRVRSTQGDVYQWKPRMG	not soluble
LMENGPEFKIEVSILKDVATVMIDTTGSSLFKRGYRTEKGGAPIKENMAAAILQLSNWYPDKPLIDPTCGSGTFCIEAVMIARKMAPGLRRSFAFEEWNWISDRLIQEVRTEAAKKVDRELELDIMGCDIDARMVEIAKANAQVAGVAGDITFKQMRVQDLRSDKINGVIISNPPYGERLSDDAGVTKLYAEMGQVFAPLKTWSKFILTSDEAFESKYGSQADKKRKLYNGTLKVDLYQYFGQRVKRQEVK	not soluble
LMVGGLLLAAASNNVQAEALQPDPAWQQGKLDNGFSWQLLATPQRPSDRIELRLIVNTGSLSENTQEVGFAHLLPRLALMSSASFTPAQLQSLWQQGIDNERPLPPAITSYDFTLYSLSLPNNRPDLLKDALAWLSDTAGNLAVSEQTVNAALNTATDPIATFPQNIQEPWWRYRLKGSSLIGHDPGQPVTQPVDVEKLKQFYQQWYTPDAMTLYVVGNVDSRSIAAQISKAFSELKGKRTAPAAVATLAPLPPEPVSLMNEQAAQDTLSLMWDTPWHPIQDSMALSRYWRSDLAREALFWHIKQVLEKNNQKNLKLGFDCRVQYQRAQCAIHLNTPVENLTANMTFVARELAALRANGLSQAEFDALMTQKNDQLSKLFATYARTDTDILMSQRLRSQQSGVVDIAPEQYQKLRQAFLSGLTLAELNRELKQQLSQDTTLVLMQPKGEPEVNVKALQEIYNGIMAPQTVAEEEVAPAEAVETAPVMPTTAQ	soluble
LNKTVKHMWPFICQFIEKLFRETIEPAVRGANTHLSTFSFTKVDVGQQPLRINGVKVYTENVDKRQIILDLQISFVGNCEIDLEIKRYFCRAGVKSIQIHGTMRVILEPLIGDMPLVGALSIFFLRKPLLEINWTGLTNLLDVPGLNGLSDTIILDIISNYLVLPNRITVPLVSEVQIAQLRFPVPKGVLRIHFIEAQDLQGKDTYLKGLVKGKSDPYGIIRVGNQIFQSRVIKENLSPKWNEVYEALVYEHPGQELEIELFDEDPDKDDFLGSLMIDLIEVEKERLLDEWFTLDEVPKGKLHLRLEWLTLMPNASNLDKVLTDIKADKDQANDGLSSALLILYLDSARNLPSGKKISSNPNPVVQMSVGHKAQESKIRYKTNEPVWEENFTFFIHNPKRQDLEVEVRDEQHQCSLGNLKVPLSQLLTSEDMTVSQRFQLSNSGPNSTIKMKIALRVLHLEKRERPPDHQHSAQVKRPSVSKEGRKTSIKSHMSGSPGPGGSNTAPSTPVIGGSDKPGMEEKAQPPEAGPQGLHDLGRSSSSLLASPGHISVKEPTPSIASDISLPIATQELRQRLRQLENGTTLGQSPLGQIQLTIRHSSQRNKLIVVVHACRNLIAFSEDGSDPYVRMYLLPDKRRSGRRKTHVSKKTLNPVFDQSFDFSVSLPEVQRRTLDVAVKNSGGFLSKDKGLLGKVLVALASEELAKGWTQWYDLTEDGTRPQAMT	soluble
LPDLRRRVLSGPLFAWFQKVLPPMSDTEREAIEAGTVWWDGELFSGRPDWQKLLDYPKAQLTEEEQAFVDGPTEELCAMVSDWDIGQRMDLPEEAWAFIKQHGFFGLIIPKEYGGKGFSAFAHSQVVMKLATRSGDLASTVMVPNSLGPAELLLHYGTDEQRQRYLPSLAKGDDIPCFALTGPYAGSDAGGMTDVGIVCKGEWEGREVLGLRLTWEKRYITLGPVATLLGLAFKCHDPDHLLGDEEDLGITLALIPTDTPGVEIGRRHVPLGAAFMNGPNSGKDVFVPLEYIIGGQEMIGKGWMMLMNCLSVGRSISLPAVGTSAGKASSYVSGRYAQVREQFNVPIAAFEGIQEALARIGGNAWLMDSARILTANAVDLGEKPSVLSAILKYHLTERGRECIAHAMDIHGGKGIIMGPNNYLGRSWQGAPIFITVEGANILSRNLMIFGQGAIRCHPYVLKEMELAQREDKDQAAREFDA	not soluble
LRIYSADNLLIGEFGEERRDFIKIEEVPKSLKQAILAAEDDRFYQHYGVDYIGVLRAIYSNFKAGGAHQGASTITMQVARNFFLTKEKTLTRKFSEALLAFKIEHSLEKDQILELYINQIYLGQRSYGFSSAAQSYFGKQLTDINLAEAAMLAGLPKAPSRFNPIVNL	not soluble
LRYNLWFGVYDGKEIKLSENFEESFLKAENPSPLPFNVSEVGAKALGKDYYRILRKTALAVSEKMVEKELRREDRYVVALVKALEEIDESINMLNEKLEDIRAVKESEITEKFEKKIRELRELRRDVEREIEEVMEKIAPNMTELVGAKVAAKLLERAGSMERLVRLPASKIQVIGAEKSLYKAFARMKKGKKAKIPKHGIIFLHPFIRTLPKAKRGKMARFLAAKLAIAAKIDYFRGEIDESLYESIRRRYEELRRK	soluble
LTGFQVGPMLQYQTGFHGIVLDFSLLYVERGIKLTNTSNRRSADIKTQSIDIPIELKWEMGMSNNFDLFLGVGPSFSFLVDKDNWGRKLAHIAVDVIDKDLPSMGWRSTEVGLNLGGGVKIVNHLMVSCYYNIGLTQSAKHNIGGNKHDAIDQIFDGDVFESKNRYWQLSLAYVF	not soluble
LVDGSLCELRYSWAKIDTYQHVNNFITLNQVKIALAQSRCHNHHLDSTTITVWYDSAFSVMRDLKGIGANHVSGRSHGLTSRRTLLQVERAYQAFKNDQGLLPATYQVCFGVIHL	not soluble
LWHASIAIVGSRQPSAGGLDHSYGFAQALAARGLGIISGMAAGIDATAHEAALSIPSGHTVAVLGTGPDVPYPARHKKLHARITTDGAVISEYPPGTQPRAAHFPQRNRIIAGLALGTLVVEAGARSGALITARLAAEAGRAVFAVPGSLHNPMTRGCHQLIRQGATLVQDIDQILED	not soluble
MAAALPRTLGELQLYRILQKANLLSYFDAFIQQGGDDVQQLCEAGEEEFLEIMALVGMASKPLHVRRLQKALRDWVTNPGLFNQPLTSLPVSSIPIYKLPEGSPTWLGISCSSYERSSNAREPHLKIPKCAATTCVQSLGQGKSDVVGSLALQSVGESRLWQGHHATESEHSLSPADLGSPASPKESSEALDAAAALSVAECVERMAPTLPKSDLNEVKELLKTNKKLAKMIGHIFEMNDDDPHKEEEIRKYSAIYGRFDSKRKDGKHLTLHELTVNEAAAQLCVKDNALLTRRDELFALARQISREVTYKYTYRTTKSKCGERDELSPKRIKVEDGFPDFQDSVQTLFQQARAKSEELAALSSQQPEKVMAKQMEFLCNQAGYERLQHAERRLSAGLYRQSSEEHSPNGLTSDNSDGQGERPLNLRMPNLQNRQPHHFVVDGELSRLYPSEAKSHSSESLGILKDYPHSAFTLEKKVIKTEPEDSR	soluble
MAAFMEEALVEARRARDAGEVPVGCVFVHGDKVVARGGNEVNVHRNATRHAEFICIDAILASCRERRLPARQLFSEITVVVTVEPCIMCSAALHTLGVKEIIYGCENDRFGGKTVVDVAAVVGHRIEITGGVRADEAMALLKDFYKGDNPAAPPQAKKKKLEHHHHHH	soluble
